The test concerns the target autologous SHIV_(1157ipd3N4) gp120 monomer (SHIV_(1157ipd3N4)). Put plainly: BLI. Background: Biolayer interferometry detects binding as a change in optical thickness at a sensor tip.

B1: unmutated common ancestor (UCA) of the J038 lineage (antibody, V domains shown)
VH: QLQLQESGPGLVKPSETLSLTCAVSGGSISSNYWSWIRQPPGKGLEWIGRISGSGGSTDYNPSLKSRVTISTDTSKNQFSLKLSSVTAADTAVYYCAREVAEDDYGYYQPYFDYWGQGVLVTVSS
VL: DIQMTQSPSSLSASVGDRVTITCRASQGISSYLAWYQQKPGKAPKLLIYAASSLQSGVPSRFSGSGSGTDFTLTISSLQPEDFATYYCQQYNSLPLTFGGGTKVEIK
On to B1, for which the Kd amounted to 37.8 nM and the koff was 0.0023 s⁻¹.

A word on the Kd: it is the constant that tells how readily two partners part at equilibrium. Low values mean a tighter complex, high ones a looser complex. The term koff denotes the first-order rate constant of dissociation. High values mean a short-lived complex, low ones a long-lived complex.

Values taken from paper PMC9130890 (2022).
